Experimental data: the DeepSol protein solubility set

Test: soluble on expression in E. coli; label from the status in PepcDB or PDB records

Soluble on expression in E. coli, soluble:
QVTVQSSPNFTQHVREQSLVTDQLSRRLIRTYQLYSRTSGKHVQVLANKRINAMAEDGDPFAKLIVETDTFGSRVRVRGAETGLYICMNKKGKLIAKSNGKGKDCVFTEIVLENNYTALQNAKYEGWYMAFTRKGRPRKGSKTRQHQREVHFMKRLPRGHHTTE
MMIRGIRGATTVERDTEEEILQKTKQLLEKIIEENHTKPEDVVQMLLSATPDLHAVFPAKAVRELSGWQYVPVTCMQEMDVTGGLKKCIRVMMTVQTDVPQDQIRHVYLEKAVVLRPDLSLTKNTEL
MADLRLEREFAVAPEALFAWVSDGAKLLQWWGPEGLHVPADQHDLDFTRLGPWFSVMVNGEGQRYKVSGQVTHVKPPQSVGFTWGWHDDDDRRGAESHVMFIVEPCAKGARLILDHRELGDDEMSLRHEEGWTSSLRKLAAELALEHHHHHH
SMPVRRVRVVKQEAGGLGISIKGGRENRMPILISKIFPGLAADQSRALRLGDAILSVNGTDLRQATHDQAVQALKRAGKEVLLEVKFIREVNTVV
MIGIVAAFEKVKIPEMGKSFGTGWLPPLPSLKDYTEESAQIPEMAEKLGIPTSRKETKTLELPVSIDFRNWCSPIEDQMDLGSCTAHAGVGVVEYFERRAFGKHIDGSRFFVYKTTRNLMGVKGDTGAWLRNTMGALALCGVPPEKYFPYTSRKTPGPDGEPTFDDEPSSFVYSLADNFEALNYFCHDPQGMNLPPEDVILSVKKYLAAGIPSMFGFYGFPSFKDTDVKGGIPFPGPDERSIWGHAVVAVGYDDNMKIRNTLSNKETTGAFLIRNSWGTAWGDKGYGWLPYEYALNKFALDFWSLISMKWVETGNFGLELESSRSRARETLSRDMPLPHALEHHHHHH
MAEVVVIGAGLSGTLMAYELLPQLGKDDRLSVISQGAIYHFVPSNPWVAVGWRKRDEIEIDLVDIMKRKGVRLLTQGAKRLHPTENRVELSDGTSINYDYLVVATGPELAFDEIPGLGPQGHTQSICHVDHASHAKDAFEKLAARPGPVVIGAVQGASCFGPAYEFLFILETELRRRKLRDQVPMTFVTSEPYVGHLGLDGVGDTKGLLEGEMREKHVKWITNARVKGVEAGKMVVEELGEGGAVHKTHELPFAYSMMLPAFRGVEAVRGIDKLTNPRGFVIVDKHQRNPAFPNVFAVGVCVAIAPVGATPVSVGVPKTGFMIESMVTATALNIGALLRGKEPSAQPTWNAICLADFGDSGVAFLAQPQIPPRNVNWSSKGEWVHYAKVAFEKYFLRKMRRGESEPFYERFLLDKLNIAKIKEVRTGTLEHHHHHH
MGSDKIHHHHHHTHSVETPYGSVTFTVYGTPKPKRPAIFTYHDVGLNYKSCFQPLFRFGDMQEIIQNFVRVHVDAPGMEEGAPVFPLGYQYPSLDQLADMIPCILQYLNFSTIIGVGVGAGAYILSRYALNHPDTVEGLVLINIDPNAKGWMDWAAHKLTGLTSSIPDMILGHLFSQEELSGNSELIQKYRGIIQHAPNLENIELYWNSYNNRRDLNFERGGETTLKCPVMLVVGDQAPHEDAVVECNSKLDPTQTSFLKMADSGGQPQLTQPGKLTEAFKYFLQG
MIRLTELKLPLNHEEGALLDAIAAKLKIPAQQVLSFTLFRRGYDARKKSDIQLIYTVDVEVANPEKLLAKFSKDQHVRPTPDMSYKFVAKAPENLPERPLVIGFGPCGLFAGLVLAQMGFNPIIVERGKEVRERTKDTFGFWRKRTLNTESNVQFGEGGAGTFSDGKLYSQVKDPNFYGRKVITEFVEAGAPEEILYVSKPHIGTFKLVTMIEKMRAKIIELGGEIRFSTRVDDIHMQDGQITGVILSNGEEIQSRHVVLAVGHSARDTFEMLHARGVYMEAKPFSVGFRIEHKQSMIDEARFGPSAGHPILGAADYKLVHHCKNGRTVYSFCMCPGGTVVAATSEEGRVVTNGMSQYSRAERNANSAIVVGISPEQDYPGDPLAGIRLQRELETNAYKLGGETYDAPAQKIGDFLKGRNPSELGDVQPSFTPGIKLTDLSKALPAFAVEAIREAIPEFDRQIKGFASEDGLLTGVETRTSSPVCIKRGKDFQSINLKGFYPAGEGAGYAGGILSAGIDGIKVAEAVARDMMARFAGELEHHHHHH
MKKHIIIKTIPKKEEIISRDLCDCIYYYDNSVICKPIGPSKVYVSTSLENLEKCLQLHYFKKLVKNIEIFDEVHNSKPNCDKCLIVEIGGVYFVRRVNGVPR
MVPLTEENVESVLDEIRPYLMSDGGNVALHEIDGNVVRVKLQGACGSCPSSTMTMKMGIERRLMEKIPEIVAVEALPDEETGLELNEENIEKVLEEIRPYLIGTADGSLDLVEIEDPIVKIRITGPAAGVMTVRVAVTQKLREKIPSIAAVQLI
MKNVLILGAGGQIARHVINQLADKQTIKQTLFARQPAKIHKPYPTNSQIIMGDVLNHAALKQAMQGQDIVYANLTGEDLDIQANSVIAAMKACDVKRLIFVLSLGIYDEVPGKFVEWNNAVIGEPLKPFRRAADAIEASGLEYTILRPAWLTDEDIIDYELTSRNEPFKGTIVSRKSVAALITDIIDKPEKHIGENIGINQPGTDGDKPFFM

Soluble on expression in E. coli, not soluble:
VSIDVPERADLEQVRGRWRNAVAGVLSKSNRTDSAQLGDHPERLLDTQTADGFAIRALYTAFDELPEPPLPGQWPFVRGGDPLRDVHSGWKVAEAFPANGATADTNAAVLAALGEGVSALLIRVGESGVAPDRLTALLSGVYLNLAPVILDAGADYRPACDVMLALVAQLDPGQRDTLSIDLGADPLTASLRDRPAPPIEEVVAVASRAAGERGLRAITVDGPAFHNLGATAATELAATVAAAVAYLRVLTESGLVVSDALRQISFRLAADDDQFMTLAKMRALRQLWARVAEVVGDPGGGAAVVHAETSLPMMTQRDPWVNMLRCTLAAFGAGVGGADTVLVHPFDVAIPGGFPGTAAGFARRIARNTQLLLLEESHVGRVLDPAGGSWFVEELTDRLARRAWQRFQAIEARGGFVEAHDFLAGQIAECAARRADDIAHRRLAITGVNEYPNLGEPALPPGDPTSPVRRYAAGFEALRDRSDHHLARTGARPRVLLLPLGPLAEHNIRTTFATNLLASGGIEAIDPGTVDAGTVGNAVADAGSPSVAVICGTDARYRDEVADIVQAARAAGVSRVYLAGPEKALGDAAHRPDEFLTAKINVVQALSNLLTRLGA
MGEEKKKRTVEITIGGKLRSFDIDDPVLPDWVEEKKLSAGNFPYDKKMKREDYDATLEALQVELVKVQFWLQATGKRVMAVFEGRDAAGKGGAIFATHAYLNPRYARVVALTKPTETERGQWYFQRYISHFPTAGEFVLFDRSWYNRAGVEPVMGFCTPDEHKRFLKETPRLEKMLVHDDIHLFKFWLDIGRETQIERFHDRRQSPLKCWKLSDMDIAALTKWDDYTQKRDEMLEKTHTDAAPWTVVRANDKRRARVNLIRHILLALDYEGKDRQAIGEIDDKILGSGPDFLK
MTKKVGVGQAHSKIILIGEHAVVYGYPAISLPLLEVEVTCKVVSAESPWRLYEEDTLSMAVYASLEYLDITEACVRCEIDSAIPEKRGMGSSAAISIAAIRAVFDYYQADLPHDVLEILVNRAEMIAHMNPSGLDAKTCLSDQPIRFIKNVGFTELEMDLSAYLVIADTGVYGHTREAIQVVQNKGKDALPFLHALGELTQQAEVAISQKYAEGLGLIFSQAHLHLKEIGVSSPEADFLVETALSYGALGAKMSGGGLGGCIIALVTNLTHAQELAERLEEKGAVQTWIESL
IGKVNYNIGFNLSDNRAKVISYPNASKALWDSNGNTLYYNGMTIGEIWGYETEGIAKTDAQMTEWLASNDQSKIGSVWGAGDIMYRDLNGDGIVDKGNSTATDHGDLKKIGNSTPRLRFGLSLGADWKGFDIQMFFQGVMKRDLWLSGPMFWGADGGEWQSVGFDEHLDYFRPENTTSIFGANLNSYYPKAYLGDKGNKNKQTQTRYLQNGAYMRMKNLQIGYTFPKAWMNKAKIEKLRIYVSGENLFTISGIADMFDPEATAGNGFSNGKTYPLSKTISFGLNITL
MTAFQSLKPSTLSREDFVKAFADIYEHSPWVAEKAYELGLDASVDQIETLHQRMSDILLSADHASQLALINAHPDLAGKAAVQGQLTEASTNEQAGAGIHQCTAEEFQRFTELNDAYKAKFKFPFIMAVKGSNRHQILAAFETRIHNSVDTEFKCALAEINKIALFRLLTLLEHHHHHH
MGATEVGDENAGTVSAQPCSRQCCLEDFWALLRRHPAPEPPPWTPVLYPLRTSLPSTLAVFLNLGLSFPKTSITSSWRDWTLHLPFAWSLSVRGPSQCVHVRGGGDHIRRRGG
MWLSSEELSAKKTACHVRNVESNKEFADSDIVASFVHNRPKDLKNLTFERHGKGGRKKAPIFSVKGDISEHVVEVGADVNCLDEGFDFAVALVDKRTGEATYRPARFYSFESKFSEDIEKIFSDKKESSSEEYKNDFSIGAEKWAEKRRQLTSNFGSSKKIKMDEAAQRRTINQETLDEMRKTAFASNSNVKTEDGAADVKLENITMMNKAESSILPPAVQTELSRDIYPISLFLEDIEIDAIESIATELMEKKKKEKLEAGIPECVTLIMYNEKTKQRAAAYLLLSTMIEILTKMGKQRQLLRKDLSELKMPDILRQKVQAQFFNDSTNEKGYTGRGAERIRLNVTDYDRFIAHTLALALTLAPEHKVPITPFQQALSYQPSKLEKMFQALGADLIRLDVASAQTLRSLRAAILLKPPSLEQKGPRKIIRR
MRDPNKWAEVKKTLPLVGAGRSGGRFRHPSARGKLTVQYVNRVRHYYDLLVRLSEKKRSGPSGRGLEHHHHHH
MPRAYWKGTLKLSLVTCPVALYPATTSVEKTRFHMINAETGNRLKQQMIDEDTGDVVEKDQKARGYEVRKGKYIEIEKDELEAVQIESTHTIDIDSFVPADEIDQRFLNHPYYIVPDGKAGTDAFAVIRDAMKDKGHVALGRIVLTNREHVLAIEPFGKGLLATTLRYPYELRDAD
EDICFLLADGRVYVAANQSFEPELLLSSSADSRLYVTDRGLFICAENRIYFIEKGRKTTQFPIADVLGVGAMNESNTAYIALGEEGLASLLLAEGSTAEAMPVAFDGPGDNDFYEMRFSHGRLYAASGLWGTNLMGHAGMVKLYDGNRWTNFDKKTVQEQLGGGFSFNDAIDIAVSNGDPDHFFVGTWGNGLFEFKDGKAIARYSGNETAIAECNPGDARVKAIAFDNKGNLWGTLGAVGKNIFMYDPQSSTWHSFSYPDVANLASFGNMIILPNGDKWVNILHRSGGSTRKGVLIFNDRGTPETTSDDSHLYVEQFVNRLGAAIGHKTIYAMAVDHNGSVWMGSDIGIFGVYNAAGVLSSTSTPIAVRPVGGEEPNLYYVLDKVTVTDIVVDKLNHKWVATQGTGLYLLSEDCSKILAQFTVENSPLLSNNILSLALNDDNGLLYIGTADGLMTFQTGTGSGSASELDGVYVYPNPLRPEYPDGVTIAGLQAGCSVKITDTTGRLLYQTESVTTEVKWNARGADGNRVASGVYAVAVYDPVSKKSKLIRFAVIR
MCIVALAWQVFDQIPLCLLSNRDEFYARPTTQLHLWENTPIIAGRDLQSGGTWMGITASGRWAVVTNFRDGHDKKIYDTSRGTLVEDFLLSDLAPIRFAKQLEQRQQHYAGFNLFMGDQSQAVYMSNRGEAPQVLAKGVYVVSNGLMSEHWEKTAHLRKRFTQEFVPMLQAEIAEHDLEYTAWDILEDERKVIPELLPSTGIHPDMEELLSSTFIQSPVYGTRCSNFLRLMKRRWIWAEKTQWGDHAGEMMRMDIQIQLEHHHHHH
